Data as given in article PMC6719327 (Applied Microbiology and Biotechnology, 2019).

Tests used:
Settings in all cases: one partner purified
[1] = biological target: T1, endothelin A receptor (ETaR) (Homo sapiens (assumed), UniProt P25101); test: flow cytometry on cells; purified scFv-His at 1 to 316 nM on ETaR-expressing CHO cells, 1 h at 4 °C; FITC-conjugated anti-His; Kd from the dose-response curve (GraphPad PRISM 5.0)
T1 construct: endothelin A receptor (ETaR), a GPCR; plasmid and cells were gifts from Gmax Biopharm LLC; also called GPCR; ETaR-expressing CHO cells; source: CHO cells stably expressing and displaying ETaR (provided by Gmax Biopharm LLC); on cells, and in vesicles prepared from them
T1 sequence (P25101 21-427): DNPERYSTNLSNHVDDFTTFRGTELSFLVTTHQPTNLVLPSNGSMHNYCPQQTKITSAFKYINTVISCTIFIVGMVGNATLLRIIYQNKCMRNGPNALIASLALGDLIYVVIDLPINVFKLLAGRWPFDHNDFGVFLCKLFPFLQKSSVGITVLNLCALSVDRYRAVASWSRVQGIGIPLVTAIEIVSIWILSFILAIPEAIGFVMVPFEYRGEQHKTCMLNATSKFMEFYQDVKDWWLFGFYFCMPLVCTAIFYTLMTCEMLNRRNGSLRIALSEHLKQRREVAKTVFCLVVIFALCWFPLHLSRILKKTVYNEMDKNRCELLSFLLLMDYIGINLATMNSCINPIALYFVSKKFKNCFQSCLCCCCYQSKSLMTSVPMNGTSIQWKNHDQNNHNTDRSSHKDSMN

[2] = biological target: T1, endothelin A receptor (ETaR); test: flow cytometry on cells; competition: unlabelled scFv at 0.01 to 316 nM against FITC-labeled wild-type anti-GPCR at L = 150 nM on ETaR-expressing CHO cells, 1 h at 4 °C; Ki = IC50/(1 + L/Kd)
[3] = biological target: T1, endothelin A receptor (ETaR); test: flow cytometry on cells; competition of unlabelled full-length antibodies, obtained similarly as for scFv; L = 13 nM; Ki = IC50/(1 + L/Kd)
[4] = biological target: T1, endothelin A receptor (ETaR); test: flow cytometry on cells; purified full-length antibodies titrated on ETaR-expressing CHO cells as for scFv; PE-conjugated anti-IgG; Kd from the dose-response curve
[5] = biological target: T1, endothelin A receptor (ETaR); test: flow cytometry on cells; competition of unlabelled full-length antibodies, obtained similarly as for scFv; L = 13 nM; Ki = IC50/(1 + L/Kd); remark: listed apart in the source
[6] = biological target: T1, endothelin A receptor (ETaR); test: flow cytometry on cells; Ki of purified scFv-Fc on ETaR-expressing cells; tracer and L not told for this format
ETaR-GFP [7] = biological target: T2, ETaR-GFP (UniProt P25101); test: flow cytometry on cells; cells expressing ETaR-GFP incubated with purified scFv-His for 30 min, then anti-his-PE antibody (Fig. 4b)
T2 construct: endothelin A receptor (ETaR) with GFP fused to its C-terminus (in cytosol); also called ETaR cells; ETaR-GFP cells; source: CHO cells stably expressing ETaR-GFP (provided by Gmax Biopharm LLC; clone S-33 for vesicles); on cells, and in vesicles prepared from them; not shown: GFP, C-terminal, kept
T2 sequence (P25101 21-427): as above

ETaR-GFP [8] = biological target: T2, ETaR-GFP; test: flow cytometry on cells; cells stably expressing ETaR-GFP incubated with purified full-length or scFv-Fc antibodies for 30 min, then PE-conjugated anti-IgG (Fig. 4c, 4d, 5b)

B1: anti-GPCR (ETaR) antibody 80H4, scFv-His, wild type (scFv, V domains shown)
VH: EVQLLESGGGLVQPGGSLRLSCAASGFTFSSYGMSWVRQAPGKGLEWVSAISTNGATAYYADSVKGRFTISRDNSKNTLYLQMNSLRAEDTAVYYCATEKGAMGYWGQGTLVTVSS
VL: DIVMTQTPLSLSVTPGQPASISCRSSQNIVHSTGNTYLEWYLQKPGQSPQLLIYKVSNRFSGVPDRFSGSGSGTDFTLKISRVEAEDVGVYYCFQGSHFPFTFGQGTKVEIK
notes: heavy-chain variable region of 80H4; (G4S)3 linker; light-chain variable region of 80H4; Order HV-(G4S)3-LV; made with a signal peptide (SP); also called WT; anti-GPCR-scFv-His; source: Expi293F, transfected, purified from supernatant (Ni-NTA); not shown: His tag, C-terminal, kept
Kd [1]: 169 nM
IC50 [2]: 568 nM
Ki [2]: 300 nM

B2: anti-GPCR (ETaR) antibody 80H4, scFv-His, mutant T113A-V64M-N28Y (scFv, V domains shown)
VH: EVQLLESGGGLVQPGGSLRLSCAASGFTFSSYGMSWVRQAPGKGLEWVSAISTNGATAYYADSMKGRFTISRDNSKNTLYLQMNSLRAEDTAVYYCATEKGAMGYWGQGTLVAVSS
VL: DIVMTQTPLSLSVTPGQPASISCRSSQYIVHSTGNTYLEWYLQKPGQSPQLLIYKVSNRFSGVPDRFSGSGSGTDFTLKISRVEAEDVGVYYCFQGSHFPFTFGQGTKVEIK
notes: heavy-chain variable region as in m3; (G4S)3 linker; light-chain variable region as in m3; Combination of N28Y and T113A-V64M made by the authors; source: Expi293F, transfected, purified from supernatant (Ni-NTA); not shown: His tag, C-terminal, kept
Kd [1]: 22.4 nM
IC50 [2]: 170 nM
Ki [2]: 22.1 nM

B3: anti-GPCR (ETaR) antibody 80H4, full-length, wild type (antibody, V domains shown)
VH: EVQLLESGGGLVQPGGSLRLSCAASGFTFSSYGMSWVRQAPGKGLEWVSAISTNGATAYYADSVKGRFTISRDNSKNTLYLQMNSLRAEDTAVYYCATEKGAMGYWGQGTLVTVSS
VL: DIVMTQTPLSLSVTPGQPASISCRSSQNIVHSTGNTYLEWYLQKPGQSPQLLIYKVSNRFSGVPDRFSGSGSGTDFTLKISRVEAEDVGVYYCFQGSHFPFTFGQGTKVEIK
notes: heavy-chain variable region of 80H4; heavy-chain constant region (HC); labelled by anti-human IgG; light-chain variable region of 80H4; light-chain constant region (LC); also called WT; full-length wild-type antibody; source: Expi293F, heavy and light chains co-expressed, purified from supernatant (Protein A); copies: 2 + 2
IC50 [3]: 50.1 nM
Ki [3]: 31.3 nM
Kd [4]: 21.5 nM

B4: anti-GPCR (ETaR) antibody 80H4, full-length, mutant D73H (antibody, V domains shown)
VH: EVQLLESGGGLVQPGGSLRLSCAASGFTFSSYGMSWVRQAPGKGLEWVSAISTNGATAYYADSVKGRFTISRHNSKNTLYLQMNSLRAEDTAVYYCATEKGAMGYWGQGTLVTVSS
VL: DIVMTQTPLSLSVTPGQPASISCRSSQNIVHSTGNTYLEWYLQKPGQSPQLLIYKVSNRFSGVPDRFSGSGSGTDFTLKISRVEAEDVGVYYCFQGSHFPFTFGQGTKVEIK
notes: heavy-chain variable region as the heavy chain of m13; heavy-chain constant region as in m13; light-chain variable region as the light chain of m13; light-chain constant region as in m13; source: Expi293F, heavy and light chains co-expressed, purified from supernatant (Protein A); copies: 2 + 2
IC50 [3]: 30.6 nM
Ki [3]: 15.7 nM
Kd [4]: 13.6 nM

B5: anti-GPCR (ETaR) antibody 80H4, full-length, mutant S115N-S30R (antibody, V domains shown)
VH: EVQLLESGGGLVQPGGSLRLSCAASGFTFRSYGMSWVRQAPGKGLEWVSAISTNGATAYYADSVKGRFTISRDNSKNTLYLQMNSLRAEDTAVYYCATEKGAMGYWGQGTLVTVNS
VL: DIVMTQTPLSLSVTPGQPASISCRSSQNIVHSTGNTYLEWYLQKPGQSPQLLIYKVSNRFSGVPDRFSGSGSGTDFTLKISRVEAEDVGVYYCFQGSHFPFTFGQGTKVEIK
notes: as for B4
IC50 [3]: 22.4 nM
Ki [3]: 10.2 nM
Kd [4]: 10.8 nM

B6: anti-GPCR (ETaR) antibody 80H4, full-length, mutant S115N-S30R-D73H (antibody, V domains shown)
VH: EVQLLESGGGLVQPGGSLRLSCAASGFTFRSYGMSWVRQAPGKGLEWVSAISTNGATAYYADSVKGRFTISRHNSKNTLYLQMNSLRAEDTAVYYCATEKGAMGYWGQGTLVTVNS
VL: DIVMTQTPLSLSVTPGQPASISCRSSQNIVHSTGNTYLEWYLQKPGQSPQLLIYKVSNRFSGVPDRFSGSGSGTDFTLKISRVEAEDVGVYYCFQGSHFPFTFGQGTKVEIK
notes: heavy-chain variable region as the heavy chain of m13; heavy-chain constant region as in m13; light-chain variable region as the light chain of m13; light-chain constant region as in m13; also called S115N-D73H-S30R; source: Expi293F, heavy and light chains co-expressed, purified from supernatant (Protein A); copies: 2 + 2
IC50 [3]: 16 nM
Ki [3]: 6.2 nM
Kd [4]: 8.27 nM

B7: anti-GPCR (ETaR) antibody 80H4, full-length, mutant T113A-V64M-N28Y (antibody, V domains shown)
VH: EVQLLESGGGLVQPGGSLRLSCAASGFTFSSYGMSWVRQAPGKGLEWVSAISTNGATAYYADSMKGRFTISRDNSKNTLYLQMNSLRAEDTAVYYCATEKGAMGYWGQGTLVAVSS
VL: DIVMTQTPLSLSVTPGQPASISCRSSQYIVHSTGNTYLEWYLQKPGQSPQLLIYKVSNRFSGVPDRFSGSGSGTDFTLKISRVEAEDVGVYYCFQGSHFPFTFGQGTKVEIK
notes: heavy-chain variable region as the heavy chain of m13; heavy-chain constant region as in m13; light-chain variable region as the light chain of m13; light-chain constant region as in m13; also called T113A-V64M-N28Y mutant full-length antibody; source: Expi293F, heavy and light chains co-expressed, purified from supernatant (Protein A); copies: 2 + 2
Ki [5]: 15.6 nM

B8: anti-GPCR (ETaR) antibody 80H4, scFv-Fc, wild type (Fc fusion)
VH: EVQLLESGGGLVQPGGSLRLSCAASGFTFSSYGMSWVRQAPGKGLEWVSAISTNGATAYYADSVKGRFTISRDNSKNTLYLQMNSLRAEDTAVYYCATEKGAMGYWGQGTLVTVSS
VL: DIVMTQTPLSLSVTPGQPASISCRSSQNIVHSTGNTYLEWYLQKPGQSPQLLIYKVSNRFSGVPDRFSGSGSGTDFTLKISRVEAEDVGVYYCFQGSHFPFTFGQGTKVEIK
notes: heavy-chain variable region as in m3; (G4S)3 linker; light-chain variable region as in m3; also called wild-type scFv-Fc; anti-GPCR-scFv-Fc; source: Expi293F, transfected, purified from supernatant (Protein A); not shown: Fc, C-terminal, kept
Ki [6]: 251 nM

B9: anti-GPCR (ETaR) antibody 80H4, scFv-Fc, mutant T113A-V64M-N28Y (Fc fusion)
VH: EVQLLESGGGLVQPGGSLRLSCAASGFTFSSYGMSWVRQAPGKGLEWVSAISTNGATAYYADSMKGRFTISRDNSKNTLYLQMNSLRAEDTAVYYCATEKGAMGYWGQGTLVAVSS
VL: DIVMTQTPLSLSVTPGQPASISCRSSQYIVHSTGNTYLEWYLQKPGQSPQLLIYKVSNRFSGVPDRFSGSGSGTDFTLKISRVEAEDVGVYYCFQGSHFPFTFGQGTKVEIK
notes: heavy-chain variable region as in m3; (G4S)3 linker; light-chain variable region as in m3; also called mutant scFv-Fc; source: Expi293F, transfected, purified from supernatant (Protein A); not shown: Fc, C-terminal, kept
Ki [6]: 40.2 nM

B10: anti-GPCR (ETaR) antibody 80H4, scFv-His, mutant R38Q (scFv, V domains shown)
VH: EVQLLESGGGLVQPGGSLRLSCAASGFTFSSYGMSWVQQAPGKGLEWVSAISTNGATAYYADSVKGRFTISRDNSKNTLYLQMNSLRAEDTAVYYCATEKGAMGYWGQGTLVTVSS
VL: DIVMTQTPLSLSVTPGQPASISCRSSQNIVHSTGNTYLEWYLQKPGQSPQLLIYKVSNRFSGVPDRFSGSGSGTDFTLKISRVEAEDVGVYYCFQGSHFPFTFGQGTKVEIK
notes: heavy-chain variable region as in m3; (G4S)3 linker; light-chain variable region as in m3; source: Expi293F, transfected, purified from supernatant (Ni-NTA); not shown: His tag, C-terminal, kept
binding result (ETaR-GFP [7]): binds

B11: anti-GPCR (ETaR) antibody 80H4, scFv-His, mutant T113A-R38Q (scFv, V domains shown)
VH: EVQLLESGGGLVQPGGSLRLSCAASGFTFSSYGMSWVQQAPGKGLEWVSAISTNGATAYYADSVKGRFTISRDNSKNTLYLQMNSLRAEDTAVYYCATEKGAMGYWGQGTLVAVSS
VL: DIVMTQTPLSLSVTPGQPASISCRSSQNIVHSTGNTYLEWYLQKPGQSPQLLIYKVSNRFSGVPDRFSGSGSGTDFTLKISRVEAEDVGVYYCFQGSHFPFTFGQGTKVEIK
notes: heavy-chain variable region as in m3; (G4S)3 linker; light-chain variable region as in m3; also called T113A-R38Q scFv-His; source: Expi293F, transfected, purified from supernatant (Ni-NTA); not shown: His tag, C-terminal, kept
binding result (ETaR-GFP [7]): binds

B12: anti-GPCR (ETaR) antibody 80H4, scFv-His, mutant N28Y (scFv, V domains shown)
VH: EVQLLESGGGLVQPGGSLRLSCAASGFTFSSYGMSWVRQAPGKGLEWVSAISTNGATAYYADSVKGRFTISRDNSKNTLYLQMNSLRAEDTAVYYCATEKGAMGYWGQGTLVTVSS
VL: DIVMTQTPLSLSVTPGQPASISCRSSQYIVHSTGNTYLEWYLQKPGQSPQLLIYKVSNRFSGVPDRFSGSGSGTDFTLKISRVEAEDVGVYYCFQGSHFPFTFGQGTKVEIK
notes: as for B10
Kd [1]: 83.5 nM
IC50 [2]: 210 nM
Ki [2]: 75.1 nM

B13: anti-GPCR (ETaR) antibody 80H4, full-length, mutant with six mutations (S115N-S30R-D73H combined with T113A-V64M-N28Y) (antibody, V domains shown)
VH: EVQLLESGGGLVQPGGSLRLSCAASGFTFRSYGMSWVRQAPGKGLEWVSAISTNGATAYYADSMKGRFTISRHNSKNTLYLQMNSLRAEDTAVYYCATEKGAMGYWGQGTLVAVNS
VL: DIVMTQTPLSLSVTPGQPASISCRSSQYIVHSTGNTYLEWYLQKPGQSPQLLIYKVSNRFSGVPDRFSGSGSGTDFTLKISRVEAEDVGVYYCFQGSHFPFTFGQGTKVEIK
notes: heavy-chain variable region as the heavy chain of m13; heavy-chain constant region as in m13; light-chain variable region as the light chain of m13; light-chain constant region as in m13; also called the mutant with these six mutations; the full-length antibody clone containing the 6 point mutations; source: Expi293F, heavy and light chains co-expressed, purified from supernatant (Protein A); …
binding result (ETaR-GFP [8]): binds

B14: anti-GPCR (ETaR) antibody 80H4, scFv-His, mutant T113A-V64M (scFv, V domains shown)
VH: EVQLLESGGGLVQPGGSLRLSCAASGFTFSSYGMSWVRQAPGKGLEWVSAISTNGATAYYADSMKGRFTISRDNSKNTLYLQMNSLRAEDTAVYYCATEKGAMGYWGQGTLVAVSS
VL: DIVMTQTPLSLSVTPGQPASISCRSSQNIVHSTGNTYLEWYLQKPGQSPQLLIYKVSNRFSGVPDRFSGSGSGTDFTLKISRVEAEDVGVYYCFQGSHFPFTFGQGTKVEIK
notes: as for B10
Kd [1]: 87 nM
IC50 [2]: 227 nM
Ki [2]: 83.4 nM
